Source: the nanobody polyreactivity screen of Harvey et al. (2022)

test: yeast display, Sf9 membrane polyspecificity reagent, FACS + sequencing; frameworks hold sequencing errors
In short: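 Galactose induction of a Saccharomyces cerevisiae BJ5465 synthetic nanobody display library ran 36–48 hours. The cells were then stained for 1 hour at 4 °C with 10% biotinylated, detergent-solubilized Sf9 membrane reagent, pulled down on streptavidin microbeads and FACS-sorted into low and high (top ~1%) gates on expression and reagent-binding fluorescence. Labels for polyreactivity follow the gate of origin.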

Row | Sequence | polyreactivity (PSR sort gate)
1 | QVQLVESRGGLVQAGGSLRLSCAASGRIFRYNAMGWDRQAPGKERELVAAITRSGGRTYYADSVKGRFTISRDNAKNTVYLQMNSLKPEDTAVYYCAADKYPSSPYVGDVDYWGQGTQVTVSS | high polyreactivity
2 | QVQLVESRGGLVQAGGSLRLSCAASGRIFYGYAMGGYRQAPGKERELVAGISKRGGTTRYADSVKGRFTISRDNAKNTVYLQMNSLKPEETAVSSCAAESFGLYASPGEEYWGQGTQVTVSS | high polyreactivity
3 | QVQLVESRGGLVQAGGSLRLSCAASGRTFLYNAMGWYRQAPGKERELVAAITDGGNTYYADSVKGRFTISRDNAKNTVYLHMKSLNPEDTAVYYCNAYVLFYTYFTRGRFDFDYWGQGTQVTVSS | low polyreactivity
4 | QVQLVESRGGLVQAGGSLRLSCAASGRTRFYAMGRYIQAPGKERELVAVINASGDSTYYADSVKGRFTISRDNAKITVYLQMNSLKPEDTAVYYCAGDNRGEYDYWGQGTQVTVSS | low polyreactivity
5 | QVQLVESRGGLVQAGGSLRLSCAASGSIFGTNAMGRNRQAPGKERELVAAINSGGSTNYADSVKGRFTISRDNAKNTVYLQMNSLKPEDTAVYYCAADEGLWSPSRNAYDYDYWGQGTQVTVSS | low polyreactivity
6 | QVQLVESRGGLVQAGGSLRLSCAASGSIFRGYAMGWYRQAPGKERELVAAIRRGVITNYADSVKGRFTISRDNAKNTVYLQMNSLKPEDTAVYYCYAVRRWRTSQFDYWGQGTLVTVSS | low polyreactivity
7 | QVQLVESRGGLVQAGGSLRLSCAASGSTFNYYVMGWYRQAPGKERELVAAISRSGTSTYYADSVKGRFTISRDNAKNTVYLQMNSLKPEDTAVYYCAAYQPYYARTELDYWGQGTQVTVSS | high polyreactivity
8 | QVQLVESRGGLVQAGGSLRLSCAASGSTFRYYAMGWYRQAPGKERELVATITARGGSTYADSVKGRFTISRDNAKNTVYLQMNSLKPEDTAVYYCAKRYGRYWDSTYSGDYDYWGQGTQVTVSS | high polyreactivity
9 | QVQLVESRGGLVQAGGSLRLSCAASGSTFYIYAMGWYRQAPGKERELVAAIDWNDGSTYYADSVKGRFTISRDNAKNTVYLQMNSLKPEDTAVYYCAAAIYIYRDGTYDYWGQGTQVTVSS | high polyreactivity
10 | QVQLVESRGGLVQAGGSLRLSCAATGSIFFSNTMGWYRQAPGTEREMVAAITSTGTTNYADSVKGRFTISRDNAKKTVYLQMNSLKPEDTAVFYCAVRARRWRYNYWGQGTQVTVSS | high polyreactivity
11 | QVQLVESRGGLVQAGGSLRLSCASSGFTFSINAMGWYRQAPGNERELVASITWSGGRTYYADSVKGRFTISRDNAKNTVYLQMNSLKPEDTAVYYCAARSYGTSTYDYWGQGTQVTVSS | high polyreactivity
12 | QVQLVESRGGLVQAGGSLRLSCATSGIFVVYALGWYRQAPGKVRELVAAISSGVSTSYADSVKGRFTISRENAKNTVYLQMNSLKPEDTAVYYCNTLWGHKFIVPFRTREFYYWGQGTQVTVSS | low polyreactivity
13 | QVQLVESRGGLVQAGGSLRLSCSASGIIFEYYAMGWYRQAPGKERELVAAISSDTSTNYADSVKGRFTISRDNAKNTVYLQMNSLKPEDTAVYYCNADAYYDTYGICVGTDYDYWGQGTQVTVSS | low polyreactivity
14 | QVQLVESRGGLVQARGSLRLSCAASGRTFYPYAMGWYSPAPGKERELVATITGSGTTTYYADSVKGRFTLSRDNGNNTVYLQMNRRKPEDTAVYYSAADVWEVVTPYGTIDDDYWRQGTQVTVSS | high polyreactivity
15 | QVQLVESRGGLVQARGSLRLSCAASGSTLFRYTKGWYRQAPGKERELVAAITRSGGNTFYADSVKGRFTISRDNSKNTVYLQMNSLKPEDTAVYYCAARARYVNCQGFDYWGQVTQVTVSS | high polyreactivity
16 | QVQLVESRGRLVQAGGSLRLSCAASGSIFGTYAMGWYRHAPGKERELVAAISWSDGSTYYADSVKGRFTISRDNAKYTVYLQMNSLKPEATEVYFCSKVYRSIGANVSRYGLSYYYWGQGTQVTVSS | low polyreactivity
17 | QVQLVESRRGLVQAGGSLRLSCAASGSIFSGYVMGRYRKAPGKETELVAAITWSGGRTYYADSVKGRFTISRDYAKNTVYLQMNSLKPEDTAVYYCAKRNIKSSGYYYWGQGTQVTVSS | high polyreactivity
18 | QVQLVESRSGIVQAGRSLRLSCAASGSIFGSYVMGWYRQAPGKERELVAAITVRTGTTYYADSVKGRFTISLDNAKNTVYLQMKRLKPEDTAVYYCDSRYGPKYGYWGQGNQVTVSS | high polyreactivity
19 | QVQLVESSAGLVQAGGSLRLSCDASGSTFFYYAMGWYRQAPGKERELVAAISLSDGNTYYADSVKGRFTISRDNAKNTVYLQMNSLKPEDTAVYYCNRVGSQSMKYWGQGTQVTVSS | low polyreactivity
20 | QVQLVESSGGLVQAGGRLRLSCAASGSTFRGNAMGWYRQAPGKERELVAAITGSGGRTYYADSVKGRFTISRDNAKNTVYLQMNSLKPEDTAVYYCAARTPNIGGIYGYWGQGTQVSVSS | high polyreactivity
21 | QVQLVESSGGLVQAGGSLRLICAASGRIFSRYPMGWYRKAPGKERELVAAITYSGGNTYYADSVKGRFTISRDYAKNTVYLQMNSLKPEDTAVYYCNAYRPYYSYVSHEHYYWGQGTQVTVSS | high polyreactivity
22 | QVQLVESSGGLVQAGGSLRLSCAASGSIFPSNAMGWYRQAPGKERELVARITGGGGNTYYADSVKGRFTISRDNAKNTVYLQMNSLKPEDTAVYYCAADYTNWKTGSNEMYYWGQGTQVTVSS | low polyreactivity

Row | Sequence | polyreactivity (PSR sort gate)
23 | QVQLVESVGCLVQAGGSLRLSCAASGFNFGYNAMGWYRQAPGKERELVAAITWIGGTTYYADSVKGRFTISRYNAKYTVYLQMNILKPEDTAVDYCNALRRGVRDPYGYWGLGTQVTVSS | high polyreactivity
24 | QVQLVESVGCLVQAGGSLRLSCDASGIIFNQNTMGWYRPAPGKERQLVAAITSSVGSTYYADSVKGRFTISRDNAKNTVYLQMNSLKPEVTAVYYCAATGWVYRRSRDYWGQGTQVTVSS | low polyreactivity
25 | QVQLVESVGCLVQARGSLRLSCAASGFTFPHYAMGWYRQAPGKERELVAVISWSGSSTYYADSVKGRFTISRDNAKNTVYLKMNSLKPVVNAVYYCNTRKLYQVDYDYWGQGSQVTVSS | high polyreactivity
26 | QVQLVESVGGIVQAGGSLRLSCAASGSTRYNAMGWYIQAPGKERELVAYIRGNAGSTYYADSVKGRFTISRDNAKNTVYLQMNSLKPEDTAVYYCNARYWYRYGGYKPVGGYYWGQGTQVTVSS | high polyreactivity
27 | QVQLVESVGGLDQAGGSLPVSCAASGLTFTGYTMGWYRQAPWKERELVATISGSGGNTDYADSVKARFTISRDKAKNTVDLQMNSLKPEDTAVYYCASRRSGPLVLYYYWGQGTQVTVSS | low polyreactivity
28 | QVQLVESVGGLDQAGGSLRLTCAASVSIFRNYAMGWYRQAPGKERELVASIRYSGGRTNYADSVKGRFTISRDNAKNTVYVPMNSLTPEDTAVYYCAAATHYWYFYSFKDKSGFRGYYWGQGTHVTVSS | high polyreactivity
29 | QVQLVESVGGLFQAGGSLRLSCAASGSTFDYYSMVWYRQAPGKERELVAGIDSAGSTNYADSVKGRFTISRDNAKNTVYLQMNSLKTGRYRGLYCNVGKTITTYAFPTFDYWGQGTQVTVSS | low polyreactivity
30 | QVQLVESVGGLFQAGRSLRLSGAASGTTFVWNAMGWYRPAPGKERELVATITLSTGSTYYADSVKGRFTISRDNAKNSVYLQMNSLKPEDTAVYYGNTEIYVDIISDYGYWGQGTQVTVSS | low polyreactivity
31 | QVQLVESVGGLLQAGGSLRVSCAASGFTFYRYAMGWYRQAPGKERELVAAITRGGSTNYADSVKRRFTISRDNAKKTVYLQMNSLKPEDTAVYYCAVVSQRTPLRGDYWGQGTQVTVSS | high polyreactivity
32 | QVQLVESVGGLVEAGGSLRLSCASSGFISSHYAMGWYRQAPGKESELVAAITSGGSTYYADSVKGRFTISRDNAKNTVYLQMNSLKPEDTAVYYCAAYYRRWPRRYDYWGQGTQVTVSS | high polyreactivity
33 | QVQLVESVGGLVEAGRILRLSCAATGSTFPYNDLGWYRQAPGKQRELVADISGDSGSTYYADSVKGRFTISRDNAKNTVYLQMKSLKPEDTAVYYCAAEGLHYAGDYGTGYDNWGQGTQLTVSS | low polyreactivity
34 | QVQLVESVGGLVQAGGCLRITCAASGSTSDANAMGWYRTATGKERELVAAITTGGSTNYADSVKGRFTISRDNAKNTVFLQMNSLKPEDTAVFYCAVDLLRMTGDRGHDYWGQGTQVTVSS | low polyreactivity
35 | QVQLVESVGGLVQAGGILRLSCAASGRTFTLNAMGWYRQAPGKERELVATISRRGGSTYYADSVKGRFTISRDNAKNTVYLQMISLKPEDTAVYDCNVDRLGKRYDNWGQGSQVTVSS | low polyreactivity
36 | QVQLVESVGGLVQAGGILRLSCAASGYTFGGSAKGWYRPAPGKERELVAAITRRGGSTYYADSVKGRFTISRDNAKNTVYLQMNSLKPEDTAVYYCAKRSGSYSYPAVGGWGLGYWGHGTQVTVSS | high polyreactivity
37 | QVQLVESVGGLVQAGGRLRLSCAASAFIFTSYAMGLYRQAPGKDRELVAAISKRGGSTYYADSVKGRFTISRDYAKNTDYLQMHSLKPEDTAVYYCATRYPQPYSPGYSYDYWGQGTQVTVSS | high polyreactivity
38 | QVQLVESVGGLVQAGGSLPLTCAASGYTIGPNVMGWYRQAPGKERELVASITSGTSTYYADSVKGRFTISRDNAKNTVYLQMNSLKPEDTAVYYCAAKYSFGRTRWYGYWGQGTQVTVSS | high polyreactivity
39 | QVQLVESVGGLVQAGGSLRLICAASGSIFDLNAMGWYRQAPGKEREFVAAISSGGGTYYADSVKGRFTISRDNAKNTVYLQKNSLKPEDTAVYYCAFELPELYYYFAYEYWGQGTQVTVSS | high polyreactivity
40 | QVQLVESVGGLVQAGGSLRLRCSASGSIFKYNAMGWYRQAPGKVRELVADITRSGGRTYYADSVKGRFTISRDNEKNTVYVQMNSLKTEDTAVYYCYAVTPTTLGDYWGQGTQVTVSS | high polyreactivity
41 | QVQLVESVGGLVQAGGSLRLSCAASGFIFFFYAMGWYRQAPGKERELVAAISDGVSTYYADSVKGRFTISSDNAKNTVYLQMNSLKPEDTAVYYCAVSRGDEPEFDYWGQGTQVTVSS | low polyreactivity
42 | QVQLVESVGGLVQAGGSLRLSCAASGFIILINVMGWYRKAPGKERELVAVITGGGTTNYADSVKGRFTISRDNAKNTVYLQMNSLKPEDTAVYYCAVDAGAGDNDYWGQGTQVTVSS | low polyreactivity
43 | QVQLVESVGGLVQAGGSLRLSCAASGFTFQYYALGWYRQAPGKERELVAAISWTGGRTYYADSVKGRFTISRDNAKNTVYLQMNSLKPEDTAVYYCNKVLYYYNSGEYDYWGQGTQVTVSS | high polyreactivity
